From paper PMC4746669, “Attenuation of ligand-induced activation of angiotensin II type 1 receptor signaling by the type 2 receptor via protein kinase C” (Scientific Reports, 2016)

Key:
[1] = target: T1, FLAG-AT2R-CFP (angiotensin II type 2 receptor) (human, UniProt P50052 1-363); assay: co-IP; 293T cells, with or without AII (Suppl. Fig. S3); details not shown; conditions: partners not purified
T1 construct: Human angiotensin II type 2 receptor (AT2R); cDNA by RT-PCR from human umbilical vein endothelial cells; printed primers run from the codon after the initial methionine to the last codon; FLAG tag inserted after the initial methionine; subcloned EcoRI-NotI into pCXN2-CFPC; also called CFP-tagged AT2R; source: HeLa cells, transfected (FuGENE HD), in lysate or in living cells; not shown: FLAG, …
T1 sequence (looked up): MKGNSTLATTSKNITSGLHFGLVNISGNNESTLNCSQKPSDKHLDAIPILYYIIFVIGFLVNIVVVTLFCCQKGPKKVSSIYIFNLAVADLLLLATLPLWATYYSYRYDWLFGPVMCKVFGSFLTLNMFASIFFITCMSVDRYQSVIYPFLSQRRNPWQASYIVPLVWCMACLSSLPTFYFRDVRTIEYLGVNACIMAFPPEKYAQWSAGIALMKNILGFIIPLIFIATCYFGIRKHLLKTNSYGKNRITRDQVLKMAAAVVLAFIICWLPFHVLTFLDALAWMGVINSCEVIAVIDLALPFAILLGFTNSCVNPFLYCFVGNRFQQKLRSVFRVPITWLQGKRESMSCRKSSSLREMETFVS

[2] = target: T1, FLAG-AT2R-CFP (angiotensin II type 2 …); assay: co-IP; HeLa cells co-transfected with HA-AT1R-YFP and Flag-AT2R-CFP, serum starved, with or without losartan or PD123319 pre-treatment and AII stimulation; NP-40 lysis buffer (10 mM Tris-HCl pH 7.4, 150 mM NaCl, 5 mM EDTA, 0.5% NP-40, 10% glycerol); anti-FLAG antibody with protein A-Sepharose; blot with anti-HA; conditions: partners not purified

B1: HA-AT1R-YFP (angiotensin II type 1 receptor) (receptor, human, UniProt P30556 1-359, looked up)
chain: MILNSSTEDGIKRIQDDCPKAGRHNYIFVMIPTLYSIIFVVGIFGNSLVVIVIYFYMKLKTVASVFLLNLALADLCFLLTLPLWAVYTAMEYRWPFGNYLCKIASASVSFNLYASVFLLTCLSIDRYLAIVHPMKSRLRRTMLVAKVTCIIIWLLAGLASLPAIIHRNVFFIENTNITVCAFHYESQNSTLPIGLGLTKNILGFLFPFLIILTSYTLIWKALKKAYEIQKNKPRNDDIFKIIMAIVLFFFFSWIPHQIFTFLDVLIQLGIIRDCRIADIVDTAMPITICIAYFNNCLNPLFYGFLGKKFKRYFLQLLKYIPPKAKSHSNLSTKMSTLSYRPSDNVSSSTKKPAPCFEVE
notes: Human angiotensin II type 1 receptor (AT1R); cDNA by RT-PCR from human umbilical vein endothelial cells; printed primers run from the codon after the initial methionine to the last codon; HA tag inserted after the initial methionine; subcloned EcoRI-NotI into pCXN2-YFPC; The reverse primer also encodes a stretch behind the NotI site that is lost on subcloning EcoRI-NotI into pCXN2-YFPC; also …
fold enhancement of the association by AII treatment (against no AII) [1]: 2.4 fold
fold enhancement of the association by AII treatment (against no AII) [2]: 1.6 fold
